To fix the notation:
B1: VH:VL chains; a variant is named by its letters at X, in order (parent)
chain 1: QVQLVQSGAEVKKPGASVKVSCKASGYTFTDYXMHWVRQAPGQGLEWMGXVNPNXXXTTYNQKFEGRVTMTTDTSTSTAYMELRSLRSDDTAVYYCARXNXLDXWGQGTTVTVSS
chain 2: DIQMTQSPSSLSASVGDRVTITCSVSSSVSSIYLHWYQQKPGKAPKLLIYSTSNLASGVPSRFSGSGSGTDFTLTISSLQPEDFATYYCQVYSGYPLTFGGGTKVEIK

This series covers variants of B1. Description: yeast display scFab, FACS + sequencing. Summed up:
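Heavy-chain CDR mutant scFab yeast surface library, FACS-sorted after labelling with biotinylated ovalbumin (260 μg/mL in PBSB, 3 h, room temperature) or soluble membrane proteins (130 μg/mL, 20 min on ice), plus anti-Myc. Gates collected the top 25% and bottom 10% of binders, and samples from two replicates were deep sequenced. Non-specific binding call: a sequence was positive if found in ≥3 of 4 positive samples (membrane protein and ovalbumin pooled) and no negatives, and negative by the converse rule.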
With ATAGSAAV, the non-specific binding call is on record as “no binding”.

As to ATAGSASD, the non-specific binding call is “no binding”. For YRTRDAGY the value was “no binding”; for YTEKTFSD, “binds”.

As to VTGEADAS, the non-specific binding call is listed as “no binding”.

For the variant YTGEDAVA, the non-specific binding call is on record as “no binding”.

For YRTRGAVD, the non-specific binding call is “binds”.

On to VTETGSLV, for which the non-specific binding call is on record as “no binding”. With FRTRGVGA the entry was “binds”. For the variant YTERAAWA, the non-specific binding call was “no binding”.

On to YRTRGAWF, for which the non-specific binding call was “binds”. For YRTRGAWA the value was “binds”. For YTEEAAVD, the non-specific binding call was “no binding”. Regarding YRTRGAAA, the non-specific binding call is reported as “binds”. For ATGGAALD the value was “no binding”; for FTGEADAS, “no binding”. For VRTRSSLD the value was “binds”. As for STATADWV, the non-specific binding call is “no binding”. For VTERSALD the value was “binds”; for FRTRSSLA, “binds”; for FTAGGAAD, “binds”.

As for FRTRGAVV, the non-specific binding call is on record as “binds”. For YRTRGASD the value was “binds”; for YTEEGDWV, “no binding”; for DTEEGDWV, “no binding”. With YRTRDSAS the entry was “no binding”; with DTGEADAS, “no binding”; with STAESDGA, “no binding”.

On to FTEEGDGA, for which the non-specific binding call is given as “no binding”. Consider FTEEGDGV, for which the non-specific binding call is “no binding”.

FRTRDFLV: the non-specific binding call is recorded as “binds”. For the variant YTAGSDWY, the non-specific binding call is reported as “no binding”.

Take VTGEDDVV: the non-specific binding call is “no binding”. For VTGEDDVA the value was “no binding”; for VTGEDDVD, “no binding”; for YRTRDSVA, “no binding”. For YRTRDSVD the value was “binds”; for VTEGGDVY, “no binding”; for VTEGGDVA, “no binding”.

For the variant SRTRDAGD, the non-specific binding call is reported as “no binding”. With YTETGDSV the entry was “no binding”; with VTEENDGY, “no binding”; with VTAESSSF, “no binding”. For YTGGDDGF the value was “no binding”; for STAESDLD, “no binding”. Regarding YRTRDSLD, the non-specific binding call is recorded as “no binding”. For FTETGFGA the value was “binds”; for FTETGSVD, “no binding”. For YRTRDALV the value was “no binding”. Regarding VTAEDFGV, the non-specific binding call was “no binding”. Turning to YTEKGVGV, the non-specific binding call is listed as “binds”.

Consider YRTRSSWD, for which the non-specific binding call is recorded as “binds”. For FTEGDSGY the value was “no binding”; for YRTRDSGV, “binds”; for YRTRSSGA, “binds”. With VTEGGALA the entry was “no binding”.

Take FTGGDALA: the non-specific binding call was “no binding”.

YRTRGSGF: the non-specific binding call was “binds”. In the case of YRTRGSGY, the non-specific binding call is “binds”.

As to YRTRSAAA, the non-specific binding call is recorded as “binds”.

As to YRTRSAAV, the non-specific binding call is “binds”. With FRTRSSGV the entry was “binds”.

Regarding YTEAADGA, the non-specific binding call is on record as “no binding”. For the variant YRTRSAGD, the non-specific binding call is on record as “binds”. For YRTRSAGV the value was “binds”; for YRTRSAGA, “binds”; for DTEEGDVA, “no binding”. With YTAGSALV the entry was “no binding”; with YTERGFGV, “no binding”.

With VRTRSSGV, the non-specific binding call is “binds”. With STEGGSVY the entry was “no binding”; with YTGEDDVY, “no binding”; with VTEGDSGV, “no binding”. For ATAGSDGV the value was “no binding”; for DTERGSLV, “no binding”. For YTGATAGA the value was “binds”. Consider YRTKGSGV, for which the non-specific binding call is “binds”. As to STAGSASD, the non-specific binding call is “no binding”. With ATGANSLD the entry was “no binding”; with FTGGAAGD, “no binding”; with VTERGSLD, “no binding”. For DTGGDDGF the value was “no binding”; for STAESDVA, “no binding”. For ATGEDDVY the value was “no binding”; for VTAGSDAV, “no binding”; for VTGESAAV, “no binding”. With VTGGDDGA, the non-specific binding call is “no binding”.

As for STGEADAS, the non-specific binding call is reported as “no binding”. As for STGEDDVY, the non-specific binding call was “no binding”. With VTAGDAGD the entry was “no binding”; with STATADVA, “no binding”; with DTAEDFGV, “no binding”. VTAGDSAD: the non-specific binding call was “no binding”. With YRTRDDLY the entry was “no binding”; with VTEGGDAA, “no binding”; with FRTRDAAA, “binds”. Consider STGGDDGA, for which the non-specific binding call is on record as “no binding”. For YRTRGSLY the value was “binds”; for YTERGDVY, “no binding”. With YTERGDVD the entry was “no binding”; with YRTRAAWD, “binds”. For FRTRDSSS the value was “binds”; for VRTRGDGA, “binds”. Consider FRTRDVGF, for which the non-specific binding call is recorded as “binds”. With FTETGAGD the entry was “no binding”.

As for VRTRGALS, the non-specific binding call was “binds”.

Consider SRTRGFVV, for which the non-specific binding call is “binds”. For VTETGDSV the value was “no binding”. With FRTRDSGY chain 1 V68I the entry was “binds”. As for FTEEGAVD, the non-specific binding call is listed as “no binding”.

Take YTERGDAV: the non-specific binding call is “no binding”. For STEEGDWV the value was “no binding”; for VTGEDSLV, “no binding”; for VTGEDSLA, “no binding”.

(Values after the emibetuzumab library of Makowski et al. (2022).)
